The results in this text go back to patent publication US12173037 (TRUSTEES OF COLUMBIA UNIVERSITY IN THE CITY OF NEW YORK, dated 2024).

This data set deals with the molecule itself. As to the kind of experiment: Western blot, homodimer formation. Background: Immunoblotting shows a protein as a band on a membrane.

B1: K3 NGAL mutant protein (ligand)
chain: QDSTSDLIPAPPLSSVPLQQNFQDNQFQGKWYVVGLAGNAILREDEDPQKMYATIYELKEDKSYNVTSVLFRDDGCDYWIRTFVPGCQPGEFTLGNIQSYPGLTSYLVRVVSTNYNQFAMVFFKKVSQNQEYFKITLYGRTKELTSELQENFIRFSKSLGLPENNIVFPVPIDQCIDG
notes: Mutant of human NGAL; Expressed in bacteria like the wild type and labelled with Alexa 568 in the uptake assays; also called K3 Scn-Ngal; Mut1
Consider B1, for which the binding result is given as “binds”.
